± gives the standard error. Fewer inactive variants are shown than the library holds.
B1: glmS ribozyme (parent)
chain: AUAAAAGCGCCAGAACUACAGAAAUGUAGUUGACGAGGAGGAGGUUUAUCGAAUUUUCGGCGGAUGCCUCCAAA

What was measured:
Conditions in all cases: with glucosamine-6-phosphate
[1] = variants of: B1; test: self-cleavage kobs at 160 uM GlcN6P; higher = faster cleavage; RNA array
Procedure, shortened: (§1)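 Over ~14 h at 37 °C, tiles were imaged as glucosamine-6-phosphate (40 μM to 10 mM) in HEPES/KCl/Mg(OAc)2 buffer flowed across sequenced MiSeq chips. The chips carried barcoded ribozyme variants transcribed in situ by E. coli RNA polymerase and tracked with a hybridised Cy3 probe. After normalisation to baseline and to non-cleaving reference variants, one- or two-exponential decay fits of per-tile medians gave kobs. kcat and KM followed from weighted Michaelis–Menten fits across concentrations.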

[2] = variants of: B1; test: self-cleavage kobs at 640 uM GlcN6P; higher = faster cleavage; RNA array
Procedure, shortened: as §1

[3] = variants of: B1; test: self-cleavage kobs at 10000 uM GlcN6P; higher = faster cleavage; RNA array
Procedure, shortened: as §1

[4] = variants of: B1; test: self-cleavage kobs at 2500 uM GlcN6P; higher = faster cleavage; RNA array
Procedure, shortened: as §1

Variant	self-cleavage kobs at 160 uM GlcN6P [1] [s⁻¹]	self-cleavage kobs at 640 uM GlcN6P [2] [s⁻¹]	self-cleavage kobs at 10000 uM GlcN6P [3] [s⁻¹]	self-cleavage kobs at 2500 uM GlcN6P [4] [s⁻¹]
C11A A36U U56A C68G C70A	6.51e-05 ± 2.8e-05	0.000823 ± 0.0003	4.16e-05 ± 1.8e-05	
C16A G35C U47G	< 1e-05			< 1e-05
G35A A48G G51C A64C	< 1e-05			
A12C G63U	< 1e-05	< 1e-05	< 1e-05	
C8A A15C C34A G38A C68G	0.000422 ± 0.00011	0.000341 ± 8.5e-05		0.00055 ± 0.00013
U30C G35A A39C G40C C68A	< 1e-05	< 1e-05		
G35A G62C	< 1e-05	< 1e-05		< 1e-05
C8A G13U G35U C68G	0.000168 ± 3.8e-05			
G13U G35C A64U	< 1e-05	< 1e-05		< 1e-05
C50G A53G C61U	0.000208 ± 7.8e-05	0.000248 ± 8.1e-05	9.79e-05 ± 2.5e-05	0.000398 ± 9.7e-05
C8A C10U	< 1e-05	< 1e-05		
G7A G59C	< 1e-05	< 1e-05		
A42C G62C G63U U69A	< 1e-05			< 1e-05
G13U A15G G35C A52U	< 1e-05	< 1e-05		< 1e-05
G7U G59A	< 1e-05	< 1e-05	< 1e-05	< 1e-05
U46C C58U C67A	< 1e-05			
G35U U49G	< 1e-05	< 1e-05	< 1e-05	< 1e-05
A36U U65C	< 1e-05			
G9A A12U U31A A52G G59C	< 1e-05			< 1e-05
C16U C34G	< 1e-05		< 1e-05	
A15G C16A G60U	< 1e-05	< 1e-05		< 1e-05
C10A A48C U56C	< 1e-05	< 1e-05		
U30C C50U U56C	< 1e-05	< 1e-05		
G32A G51C	< 1e-05	< 1e-05		< 1e-05
G35U A53U G60U	< 1e-05	< 1e-05		
C8A U31G G62A	< 1e-05			< 1e-05

Variant	self-cleavage kobs at 160 uM GlcN6P [1] [s⁻¹]	self-cleavage kobs at 640 uM GlcN6P [2] [s⁻¹]	self-cleavage kobs at 10000 uM GlcN6P [3] [s⁻¹]	self-cleavage kobs at 2500 uM GlcN6P [4] [s⁻¹]
G37A C50G C71A	0.000356 ± 0.00012	0.000114 ± 3.6e-05		6.17e-05 ± 2.4e-05
G32C C34A C67G C70A	< 1e-05			
C16U C58G C68G	0.000169 ± 4.4e-05	0.000132 ± 3.4e-05		7.79e-05 ± 1.5e-05
G51A U57C	< 1e-05	< 1e-05	< 1e-05	< 1e-05
U31C A52U C71G	< 1e-05			
G41U G51A	< 1e-05	< 1e-05	< 1e-05	< 1e-05
U55C C58U	< 1e-05		6.55e-05 ± 8.7e-06	
G13U A42C U54A U55G	< 1e-05	< 1e-05		< 1e-05
G9C A48G	< 1e-05	< 1e-05	< 1e-05	< 1e-05
C8G C16A	< 1e-05	< 1e-05	< 1e-05	< 1e-05
C8U A12C G43C U49C	< 1e-05	< 1e-05	< 1e-05	< 1e-05
C16G A48G C68A C71G	5.61e-05 ± 2.2e-05	0.000118 ± 3.8e-05		
A6U A12G G66U	8.08e-05 ± 2.3e-05			
G26A C70A	0.000106 ± 2.6e-05			
G7A A48U A53U U65A	< 1e-05	< 1e-05		
G9A A52U C70U	< 1e-05			
C8U A39U U46C U56C G59U	< 1e-05	< 1e-05		< 1e-05
C11A G13U U47G A52C A53C	< 1e-05			
G59U C67U C68U U69C	4.87e-05 ± 2.4e-05			
C58A G59C	< 1e-05	< 1e-05	< 1e-05	
G13U G44U	< 1e-05			
A12C C50A A53G G63U	< 1e-05			
G40C C50U U57A C58G U65A	< 1e-05			< 1e-05
G35C A42U G43A A52U	< 1e-05	< 1e-05		< 1e-05
A33U U65G	< 1e-05	< 1e-05		
C8U U30C G59U	< 1e-05	< 1e-05		< 1e-05

Variant	self-cleavage kobs at 160 uM GlcN6P [1] [s⁻¹]	self-cleavage kobs at 640 uM GlcN6P [2] [s⁻¹]	self-cleavage kobs at 10000 uM GlcN6P [3] [s⁻¹]	self-cleavage kobs at 2500 uM GlcN6P [4] [s⁻¹]
G40U U45A U56G	6.56e-05 ± 1.6e-05			0.000611 ± 0.00014
G35U U45G U46G A64G	< 1e-05	< 1e-05		< 1e-05
G7U C16G G43U C67G	< 1e-05	< 1e-05		
A12U A15G C16G U30C A33U A48G G66A	< 1e-05	< 1e-05		
C61G G62A C67U C68A	0.000136 ± 2.6e-05	4.43e-05 ± 1.5e-05		0.000107 ± 2.2e-05
G29A G41U A53C C58A	< 1e-05	< 1e-05		< 1e-05
G35C A39U U49G C50G	< 1e-05			< 1e-05
U31A C61G	< 1e-05		< 1e-05	
A33C A39C A52U C70U	< 1e-05	< 1e-05		
U31A A52C	< 1e-05			< 1e-05
C11G A12C A52C G59U G66A C67G	< 1e-05	< 1e-05		< 1e-05
A6U G38U U47G	< 1e-05			
A64U C68U	< 1e-05	< 1e-05		
G38U G60C	< 1e-05	< 1e-05		
C10G U31C A48U C61A C70G	< 1e-05	< 1e-05		
U47C G62C	< 1e-05	< 1e-05	< 1e-05	< 1e-05
C8G G51U A64U	< 1e-05	< 1e-05		
C11U U55G C71A	3.73e-05 ± 1.5e-05	8.41e-05 ± 1.7e-05		0.000143 ± 5.3e-05
C11A G38A U45A	< 1e-05			
A15G U31C U45C U49A	< 1e-05	< 1e-05		< 1e-05
A12G G13C G29A C50G	0.00168 ± 0.00066			4.52e-05 ± 1.8e-05
C8U A15U	< 1e-05	< 1e-05		< 1e-05
A42G C50G A64G	< 1e-05			
A14U G21A U56G	0.00134 ± 0.00038	0.0043 ± 0.0012		0.00645 ± 0.0026
C10G C11A C16U G38U	< 1e-05	< 1e-05	< 1e-05	
C16U A64G U65A C70U	8.56e-05 ± 2.7e-05	0.00104 ± 0.00025		0.000964 ± 0.00024

Variant	self-cleavage kobs at 160 uM GlcN6P [1] [s⁻¹]	self-cleavage kobs at 640 uM GlcN6P [2] [s⁻¹]	self-cleavage kobs at 10000 uM GlcN6P [3] [s⁻¹]	self-cleavage kobs at 2500 uM GlcN6P [4] [s⁻¹]
C11U C34U G66C	< 1e-05			< 1e-05
C34G U56C	< 1e-05			
C10G G29A G62U C71U	< 1e-05	< 1e-05		< 1e-05
C8U C61G	< 1e-05	< 1e-05	< 1e-05	< 1e-05
C34A A64C C68U	< 1e-05	< 1e-05		< 1e-05
C10G U45C	< 1e-05			< 1e-05
G29A A36G C58A	< 1e-05	< 1e-05	< 1e-05	< 1e-05
C8U A14U G37U G41U	< 1e-05	< 1e-05		< 1e-05
U30C U46G U54A	< 1e-05			
C11A A42G A53C	< 1e-05			
A15C G29U C67A	9.38e-05 ± 3.4e-05	0.000156 ± 2.9e-05		0.000163 ± 4.2e-05
G29C G35A G59U A64G	< 1e-05			
C11A A42C	< 1e-05	< 1e-05		< 1e-05
A6C G41U C68U C70A	< 1e-05			3.76e-05 ± 1.6e-05
G35C U57G G59C	< 1e-05			
A12G G40U G62A	< 1e-05			
U30C G35U G40U A42G U47C	< 1e-05	< 1e-05		
C11U U56G	4.58e-05 ± 1.6e-05	0.000297 ± 5.6e-05	0.00158 ± 0.00036	0.000254 ± 9.7e-05
A6C C8U C34A	< 1e-05	< 1e-05		< 1e-05
A6G U69C	< 1e-05		2.56e-05 ± 1e-05	
G41A G60C	< 1e-05	< 1e-05	< 1e-05	
A14G U45G A53U	0.000618 ± 0.00016	0.00262 ± 0.00057		0.00337 ± 0.0012
C16A U54A C67A	4.32e-05 ± 1.9e-05	6.57e-05 ± 2.8e-05		0.000181 ± 4.8e-05
C10G U46A U55C	< 1e-05			< 1e-05
C11G U31C C71U	< 1e-05			< 1e-05
G7C U55A A64U	< 1e-05	< 1e-05		< 1e-05

From the supplement of paper PMC7125110
